# According to US20210253698A1 (AFFIMED, published 2021):
# B1: CD16A/BCMA antibody II (bispecific antibody)
# TandAb polypeptide VH BCMA-VL CD16A-VH CD16A-VL BCMA: EVQLLESGGGLVQPGGSLRLSCAASGFTFSNYDMAWVRQAPGKGLEWVSSISTRGDITSYRDSVKGRFTISRDNSKNTLYLQMNSLRAEDTAVYYCARQDYYTDYMGFAYWGQGTLVTVSSGGSGGSGGSGGSSYVLTQPSSVSVAPGQTATISCGGHNIGSKNVHWYQQRPGQSPVLVIYQDNKRPSGIPERFSGSNSGNTATLTISGTQAMDEADYYCQVWDNYSVLFGGGTKLTVLGGSQVQLVQSGAEVKKPGESLKVSCKASGYTFTSYYMHWVRQAPGQGLEWMGAIEPMYGSTSYAQKFQGRVTMTRDTSTSTVYMELSSLRSEDTAVYYCARGSAYYYDFADYWGQGTLVTVSSGGSGGSGGSGGSAIQMTQSPSSLSASVGDRVTITCRASEDIYNGLAWYQQKPGKAPKLLIYGASSLQDGVPSRFSGSGSGTEFTLTISSLQPEDEATYYCAGPHKYPLTFGGGTKVEIK
# notes: also called Fc-less TandAb BCMA/CD16A
# B2: CD16A/BCMA antibody III (bispecific antibody)
# chain 1: DKTHTCPPCPAPEFEGGPSVFLFPPKPKDTLMISRTPEVTCVVVAVSHEDPEVKFNWYVDGVEVHNAKTKPREEQYNSTYRVVSVLTVLHQDWLNGKEYKCKVSNKALPAPIEKTISKAKGQPREPQVYTLPPSREEMTKNQVSLTCLVKGFYPSDIAVEWESNGQPENNYKTTPPVLDSDGSFFLTSKLTVDKSRWQQGNVFSCSVMHEALHNHYTQKSLSLSPGGGGGSGGGGSSYVLTQPSSVSVAPGQTATISCGGHNIGSKNVHWYQQRPGQSPVLVIYQDNKRPSGIPERFSGSNSGNTATLTISGTQAMDEADYYCQVWDNYSVLFGGGTKLTVLGGSGGSQVQLVQSGAEVKKPGESLKVSCKASGYTFTSYYMHWVRQAPGQGLEWMGAIEPMYGSTSYAQKFQGRVTMTRDTSTSTVYMELSSLRSEDTAVYYCARGSAYYYDFADYWGQGTLVTVSSGGSGGSGGSGGSGGSGGSSYVLTQPSSVSVAPGQTATISCGGHNIGSKNVHWYQQRPGQSPVLVIYQDNKRPSGIPERFSGSNSGNTATLTISGTQAMDEADYYCQVWDNYSVLFGGGTKLTVLGGSGGSQVQLVQSGAEVKKPGESLKVSCKASGYTFTSYYMHWVRQAPGQGLEWMGAIEPMYGSTSYAQKFQGRVTMTRDTSTSTVYMELSSLRSEDTAVYYCARGSAYYYDFADYWGQGTLVTVSSAAAGSHHHHHH
# chain 2: EVQLLESGGGLVQPGGSLRLSCAASGFTFSNYDMAWVRQAPGKGLEWVSSISTRGDITSYRDSVKGRFTISRDNSKNTLYLQMNSLRAEDTAVYYCARQDYYTDYMGFAYWGQGTLVTVSSGGGGSGGGGSGGGGSAIQMTQSPSSLSASVGDRVTITCRASEDIYNGLAWYQQKPGKAPKLLIYGASSLQDGVPSRFSGSGSGTEFTLTISSLQPEDEATYYCAGPHKYPLTFGGGTKVEIKDKTHTCPPCPAPEFEGGPSVFLFPPKPKDTLMISRTPEVTCVVVAVSHEDPEVKFNWYVDGVEVHNAKTKPREEQYNSTYRVVSVLTVLHQDWLNGKEYKCKVSNKALPAPIEKTISKAKGQPREPQVYTLPPSREEMTKNQVSLYCLVKGFYPSDIAVEWESNGQPENNYKTTPPVLDSDGSFFLYSKLTVDKSRWQQGNVFSCSVMHEALHNHYTQKSLSLSPG
# notes: also called KiH-scDb-Fc BCMA/CD16a
# B3: CD16A/BCMA antibody I (bispecific antibody, human IgG1, kappa)
# heavy: EVQLLESGGGLVQPGGSLRLSCAASGFTFSNYDMAWVRQAPGKGLEWVSSISTRGDITSYRDSVKGRFTISRDNSKNTLYLQMNSLRAEDTAVYYCARQDYYTDYMGFAYWGQGTLVTVSSASTKGPSVFPLAPSSKSTSGGTAALGCLVKDYFPEPVTVSWNSGALTSGVHTFPAVLQSSGLYSLSSVVTVPSSSLGTQTYICNVNHKPSNTKVDKKVEPKSCDKTHTCPPCPAPEFEGGPSVFLFPPKPKDTLMISRTPEVTCVVVAVSHEDPEVKFNWYVDGVEVHNAKTKPREEQYNSTYRVVSVLTVLHQDWLNGKEYKCKVSNKALPAPIEKTISKAKGQPREPQVYTLPPSREEMTKNQVSLTCLVKGFYPSDIAVEWESNGQPENNYKTTPPVLDSDGSFFLYSKLTVDKSRWQQGNVFSCSVMHEALHNHYTQKSLSLSPGGGGGSGGGGSGGGGSGGGGSGGGGSGGGGSSYVLTQPSSVSVAPGQTATISCGGHNIGSKNVHWYQQRPGQSPVLVIYQDNKRPSGIPERFSGSNSGNTATLTISGTQAMDEADYYCQVWDNYSVLFGGGTKLTVLGGSGGSGGSGGSGGSGGSGGSQVQLVQSGAEVKKPGESLKVSCKASGYTFTSYYMHWVRQAPGQGLEWMGAIEPMYGSTSYAQKFQGRVTMTRDTSTSTVYMELSSLRSEDTAVYYCARGSAYYYDFADYWGQGTLVTVSS
# light: AIQMTQSPSSLSASVGDRVTITCRASEDIYNGLAWYQQKPGKAPKLLIYGASSLQDGVPSRFSGSGSGTEFTLTISSLQPEDEATYYCAGPHKYPLTFGGGTKVEIKRTVAAPSVFIFPPSDEQLKSGTASVVCLLNNFYPREAKVQWKVDNALQSGNSQESVTEQDSKDSTYSLSSTLTLSKADYEKHKVYACEVTHQGLSSPVTKSFNRGEC
# notes: also called scFv-IgAb I BCMA/CD16a; BCMA/CD16A antibody I
# B4: IgG1 Fc (silenced, L234F/L235E/D265A) (antibody)
# heavy: ASTKGPSVFPLAPSSKSTSGGTAALGCLVKDYFPEPVTVSWNSGALTSGVHTFPAVLQSSGLYSLSSVVTVPSSSLGTQTYICNVNHKPSNTKVDKKVEPKSCDKTHTCPPCPAPEFEGGPSVFLFPPKPKDTLMISRTPEVTCVVVAVSHEDPEVKFNWYVDGVEVHNAKTKPREEQYNSTYRVVSVLTVLHQDWLNGKEYKCKVSNKALPAPIEKTISKAKGQPREPQVYTLPPSRDELTKNQVSLTCLVKGFYPSDIAVEWESNGQPENNYKTTPPVLDSDGSFFLYSKLTVDKSRWQQGNVFSCSVMHEALHNHYTQKSLSLSPGK
# notes: also called human IgG1 Fc-silenced
# B5: anti-CD16A Fv of SEQ ID NOs:1 and 2 (scFv)
# chain 1: QVQLVQSGAEVKKPGESLKVSCKASGYTFTSYYMHWVRQAPGQGLEWMGIINPSGGSTSYAQKFQGRVTMTRDTSTSTVYMELSSLRSEDTAVYYCARGSAYYYDFADYWGQGTLVTVSS
# chain 2: SYVLTQPSSVSVAPGQTATISCGGHNIGSKNVHWYQQRPGQSPVLVIYQDNKRPSGIPERFSGSNSGNTATLTISGTQAMDEADYYCQVWDNYSVLFGGGTKLTVL
# notes: Measured as purified scFv
# B6: scDb-Tribody_01 (other)
# VH: B5 chain 1
# VL: B5 chain 2
# notes: Trispecific; LSIV21 scDb VL-VL-VH-VH; HSA(N1) Fab, EGFR; no hinge; no Fc; Chains: anti-CD16A Fv only
# Assays:
# [1] = target: Human CD16A-158V ECD-monomeric Fc fusion antigen (human) (UniProt P08637); test: ELISA, antigen coated at 1.5 µg/mL (32 nM), scFv titrated
# [2] = target: Cynomolgus CD16A ECD-monomeric Fc fusion antigen (cynomolgus) (UniProt Q8SPW2); test: as above
# [3] = target: Human CD16A-158F ECD-monomeric Fc fusion antigen (human) (UniProt P08637); test: as above
# [4] = target: Human CD16A-158V ECD-monomeric Fc fusion antigen (human) (UniProt P08637); test: ELISA, CD16 antigen coated at 0.5 µg/mL (10 nM), competitor 8-10 nM 3G8 IgG
# [5] = target: Human CD16A-158V ECD-monomeric Fc fusion antigen (human) (UniProt P08637); test: SPR (Biacore T200), receptor-mono-Fc captured, 1:1 model
# [6] = target: human CD16A (FcγRIIIA) on primary human NK cells (human) (UniProt P08637); test: flow cytometry on primary human NK cells, 37 C, with 10 mg/mL polyclonal human IgG
# [7] = target: Human CD16A-158V ECD-monomeric Fc fusion antigen (human) (UniProt P08637); test: ELISA, CD16 antigen coated at 0.5 µg/mL (10 nM), without competition
# [8] = target: human CD16A (FcγRIIIA) on primary human NK cells (human) (UniProt P08637); test: flow cytometry on primary human NK cells, 37 C, buffer
# [9] = target: human CD16A-158V and cynomolgus CD16 (value not tied to one of the two); test: SPR, 50 nM analyte, receptor captured, 3 h dissociation
# [10] = target: T1, B-cell maturation antigen (BCMA) (human, UniProt Q02223 1-54, limits assumed); test: flow cytometry on Raji cells (low BCMA), APC-A histogram, % of Max
# T1 construct: also called CD269; TNFRSF17
# T1 sequence (looked up): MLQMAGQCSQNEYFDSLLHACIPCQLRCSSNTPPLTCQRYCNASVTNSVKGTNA
# CD16A = target: T2, CD16A (human, UniProt P08637 17-208); test: not stated; binding to CD16A
# T2 construct: also called CD16A antigen; FcγRIIIA
# [11] = target: T3, human CD16A (FcγRIIIA) on primary human NK cells (human, UniProt P08637 17-254); test: flow cytometry on freshly prepared human NK cells, DyLight650-labelled antibody, in the presence of 10 mg/mL SCIG (Hizentra), delta gMFI
# T3 construct: whole, on cells
# Procedure: Fresh prepared human NK cells were pre-incubated for 1-hours at 37 C with and without 10 mg/mL of SCIG (Hizentra), then stained with DyLight650 labeled anti-AFM26/CD16a at indicted concentrations. […] In FIGS. 40C and 40D, human NK cells were isolated from a healthy human blood donor. NK (FIG. 40D) and MM.1S cells (FIG. 40C) were preincubated separately in 50% human autologous serum for 2 hours prior to assay setup. NK cells were co-cultured with MM.15 tumor cell line at an approximate E:T ration of 5, and exposed to 10-fold serial diluted test articles from 0.1-100nM for approximately 20 hours at 37 C with 5% CO₂. Antibody staining with CD138 and CD56 followed by FACS were used to monitor cytotoxicity of MM.15 target cells and NK survival. Data were analyzed with the software programs FlowJo and GraphPad Prism 6.
# [12] = target: T1, B-cell maturation antigen (BCMA); test: not stated; binding to BCMA
# [13] = target: T4, Human CD16A-158V ECD-monomeric Fc fusion antigen (human, UniProt P08637 17-208); test: SPR multi-cycle kinetics (Biacore T200), 4-fold dilution series over captured human CD16A-158V
# T4 construct: extracellular domain; also called CD16A-158V ECD-Fc fusion antigen; biotinylated mono-Fc(silent)-Avi-tagged receptor; not shown: monomeric Fc (Ying et al. 2012) fusion partner, Avi tag in SPR
# Procedure: (§1) IgGs and scFvs were prepared in HBS-P+buffer at indicated concentration series and are injected to reference surfaces (Fc 1, Fc 3) and receptor captured surface (Fc 2, Fc 4) at a flow rate of 40 μL/min (association time 180 s, dissociation time 300 s). […] Data were referenced by subtraction of signals from reference surfaces (Fc 2-1, Fc 4-3) and zero concentration (buffer control) signals. Kinetic evaluation was performed by fitting data to a 1:1 binding model (Rmax and RI locally fitted) using Biacore T200 Evaluation Software (v3.1).
# [14] = target: T5, Human CD16A-158F ECD-monomeric Fc fusion antigen (human, UniProt P08637 17-208, biotinylated in SPR); test: SPR (Biacore T200), receptor-mono-Fc captured, 1:1 model
# T5 construct: extracellular domain; not shown: monomeric Fc (Ying et al. 2012) fusion partner, Avi tag in SPR
# Procedure: as §1, with “(v3.1). […] Referenced curves were normalized to each curves maximum and overlaid. For investigation of receptor retention via qualitative dissociation phase comparison of monovalent and bivalent CD16A-binding antibodies or ligands, biotinylated mono-Fc(silent)-Avi-tagged receptors were prepared in HBS-P+and captured (human CD16A-158V approx. 160RU, cynomolgus CD16 approx. 320 RU) in flow cells Fc 2 and […].” for “(v3.1).”
# [15] = target: human CD16A (SEQ ID NO:48) (human, UniProt P08637 17-208); test: SPR (Biacore T200), purified scFv, monovalent binding affinity; human CD16A
# [16] = target: cynomolgus CD16A (SEQ ID NO:49) (cynomolgus, UniProt Q8SPW2 17-208); test: SPR (Biacore T200), purified scFv, monovalent binding affinity; cynomolgus CD16A
# [17] = target: T6, biotinylated, recombinant human CD16A(48R-158V) fused to human IgG1 Fc portion (human, UniProt P08637 17-208, limits assumed, biotinylated); test: ELISA, antibody coated, soluble biotinylated CD16A-Fc titrated
# T6 construct: also called soluble CD16A antigen; recombinant human CD16A soluble antigen; not shown: human IgG1 Fc portion
# T6 sequence (P08637 17-208 L66R/F176V limits assumed): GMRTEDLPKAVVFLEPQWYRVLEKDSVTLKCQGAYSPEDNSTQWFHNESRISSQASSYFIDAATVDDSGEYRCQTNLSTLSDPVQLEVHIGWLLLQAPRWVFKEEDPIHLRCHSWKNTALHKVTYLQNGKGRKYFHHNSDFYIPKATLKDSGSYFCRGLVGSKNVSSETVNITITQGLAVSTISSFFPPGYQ
# T5 sequence (P08637 17-208): as the sequence (P08637 17-208 L66R/F176V limits assumed) above, with R50L, V160F counted along it
# Human CD16A-158V ECD-monomeric Fc fusion antigen (human), sequence (P08637 17-208 F176V): as the sequence (P08637 17-208 L66R/F176V limits assumed) above, with R50L counted along it
# human CD16A (FcγRIIIA) on primary human NK cells (human), sequence (P08637 17-254): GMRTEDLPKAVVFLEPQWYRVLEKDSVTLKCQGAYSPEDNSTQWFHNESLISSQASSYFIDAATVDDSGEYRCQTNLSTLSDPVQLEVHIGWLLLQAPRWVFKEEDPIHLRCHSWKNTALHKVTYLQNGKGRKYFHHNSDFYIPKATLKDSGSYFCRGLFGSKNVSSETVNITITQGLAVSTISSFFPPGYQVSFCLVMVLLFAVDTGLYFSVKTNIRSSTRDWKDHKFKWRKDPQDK
# Human CD16A-158F ECD-monomeric Fc fusion antigen (human), sequence (P08637 17-208): as the sequence (P08637 17-208 L66R/F176V limits assumed) above, with R50L, V160F counted along it
# human CD16A (SEQ ID NO:48), sequence (P08637 17-208 limits assumed): as the sequence (P08637 17-208 L66R/F176V limits assumed) above, with R50L, V160F counted along it
# T2 sequence (P08637 17-208 limits assumed): as the sequence (P08637 17-208 L66R/F176V limits assumed) above, with R50L, V160F counted along it
# T4 sequence (P08637 17-208 F176V): as the sequence (P08637 17-208 L66R/F176V limits assumed) above, with R50L counted along it
# Cynomolgus CD16A ECD-monomeric Fc fusion antigen (cynomolgus), sequence (Q8SPW2 17-208): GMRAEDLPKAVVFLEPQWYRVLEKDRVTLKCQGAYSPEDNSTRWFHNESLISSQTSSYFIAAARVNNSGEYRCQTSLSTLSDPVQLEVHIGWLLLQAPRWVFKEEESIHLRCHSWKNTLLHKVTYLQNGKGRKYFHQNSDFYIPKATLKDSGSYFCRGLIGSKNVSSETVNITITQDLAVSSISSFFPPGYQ
# cynomolgus CD16A (SEQ ID NO:49), sequence (Q8SPW2 17-208 limits assumed): as the sequence (Q8SPW2 17-208) above
# T3 sequence (P08637 17-254): as the sequence (P08637 17-254) above
molecule,measurement,setting,value
scFv 3G8,EC50,[1],0.33 nM
same,EC50,[2],0.87 nM
same,EC50,[3],0.58 nM
same,EC50,[4],19.7 nM
same,Kd,[5],8.6 nM
same,Kd,[6],64.6 nM
same,EC50,[7],0.9 nM
same,Kd,[8],3.8 nM
"IgG1 Fc (enhanced, S239D/I332E) (from UniProt P01857 1-330) (antibody)",percent remaining on the receptor after 3 h of dissociation,[9],10%
B1,binding result,[10],binds
B2,binding result,[10],binds
B3,Kd,CD16A,~16 nM
same,EC50 (read off the curve),[11],~40 nM
same,Kd,[12],~2 nM
B4,binding result,[13],no binding
same,Kd,[14],34.7 µM
same,koff,[14],0.71 s⁻¹
same,kon,[14],20400 M⁻¹ s⁻¹
B5,Kd,[15],40.5 nM
same,Kd,[16],132 nM
B6,EC50,[17],0.65 nM
